How the values were obtained:
[1] = target: T1, 3-mercaptopropionic acid dioxygenase (Av3MDO) (Azotobacter vinelandii, UniProt C1DN94); experiment: X-ray crystal structure ([…] Å); competitive inhibition by O2 electrode steady-state kinetics; type: biochemical
T1 construct: gene Avin_30970; His-tag removed by thrombin; N- and C-termini not modelled

[2] = target: Azotobacter vinelandii 3-mercaptopropionic acid dioxygenase (Azotobacter vinelandii); experiment: crystal structure; crystal form A, space group P3(1), 12 monomers in the asymmetric unit; 100 mM MES pH 6, 30% poly(acrylic acid sodium salt) 5100, 10% ethanol, 50 mM MgCl2, 22 °C; complex with 3HPA and chloride
[3] = target: Azotobacter vinelandii 3-mercaptopropionic acid dioxygenase (Azotobacter vinelandii); experiment: crystal structure; crystal form B, space group P6(1)22, four monomers in the asymmetric unit; HEPES pH 7, pentaerythritol propoxylate, sodium thiocyanate, 22 °C; thiocyanate bound at the iron

T1 sequence (C1DN94 entry or part of it): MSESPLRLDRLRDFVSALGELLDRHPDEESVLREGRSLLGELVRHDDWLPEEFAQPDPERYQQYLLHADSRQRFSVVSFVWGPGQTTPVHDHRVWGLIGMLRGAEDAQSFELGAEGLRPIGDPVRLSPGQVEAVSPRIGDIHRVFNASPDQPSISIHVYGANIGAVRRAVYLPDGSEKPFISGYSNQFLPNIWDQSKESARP

Ki [1] [µM] | stoichiometry N [2] | stoichiometry N [3] | Molecule
280 ± 26 |  |  | O=C(O)CCO [3HPA, 3-hydroxypropionic acid]
 | 2 | 2 | Azotobacter vinelandii 3-mercaptopropionic acid dioxygenase (enzyme)
